Experimental data: patent US20080020978A1 (Amgen, published 2008)
Positions count from the first letter of the chain named. Square brackets hold non-standard residues; d marks the D form. Ends that are not written are not given here. * marks the point of attachment. Bn2 = Nα,Nα-dibenzyl on N-terminal residue; 1Nal = N[C@@H](Cc1cccc2ccccc12)C(=O)O; hArg = N=C(N)NCCCC[C@H](N)C(=O)O; Tic = O=C(O)[C@@H]1Cc2ccccc2CN1; Cha = N[C@@H](CC1CCCCC1)C(=O)O; Cit = NC(=O)NCCC[C@H](N)C(=O)O; Phg = N[C@H](C(=O)O)c1ccccc1; Bn = c1ccc(C*)cc1; Acm = CC(=O)NC*

B1: SEQ ID NO 701 (peptide)
peptide: [1Nal]VTHRLAGLLSRSGGVVKNNFVPTDVGPFAF-NH2
modifications: N-terminus assumed
SMILES: CC(C)C[C@H](NC(=O)CNC(=O)[C@H](C)NC(=O)[C@H](CC(C)C)NC(=O)[C@H](CCCNC(=N)N)NC(=O)[C@H](Cc1c[nH]cn1)NC(=O)[C@@H](NC(=O)[C@@H](NC(=O)[C@@H](N)Cc1cccc2ccccc12)C(C)C)[C@@H](C)O)C(=O)N[C@@H](CC(C)C)C(=O)N[C@@H](CO)C(=O)N[C@@H](CCCNC(=N)N)C(=O)N[C@@H](CO)C(=O)NCC(=O)NCC(=O)N[C@H](C(=O)N[C@H](C(=O)N[C@@H](CCCCN)C(=O)N[C@@H](CC(N)=O)C(=O)N[C@@H](CC(N)=O)C(=O)N[C@@H](Cc1ccccc1)C(=O)N[C@H](C(=O)N1CCC[C@H]1C(=O)N[C@H](C(=O)N[C@@H](CC(=O)O)C(=O)N[C@H](C(=O)NCC(=O)N1CCC[C@H]1C(=O)N[C@@H](Cc1ccccc1)C(=O)N[C@@H](C)C(=O)N[C@@H](Cc1ccccc1)C(N)=O)C(C)C)[C@@H](C)O)C(C)C)C(C)C)C(C)C
B2: SEQ ID NO 721 (peptide)
peptide: CGGGGGGGFVPTDVGPFAF-NH2
B3: SEQ ID NO 702 (peptide)
peptide: Bn2-VTHRLAGLLSRSGGVVKNNFVPTDVGPFAF-NH2
B4: SEQ ID NO 700 (peptide)
peptide: Bn-VTHRLAGLLSRSGGVVKNNFVPTDVGPFAF-NH2
SMILES: CC(C)C[C@H](NC(=O)CNC(=O)[C@H](C)NC(=O)[C@H](CC(C)C)NC(=O)[C@H](CCCNC(=N)N)NC(=O)[C@H](Cc1c[nH]cn1)NC(=O)[C@@H](NC(=O)[C@@H](NCc1ccccc1)C(C)C)[C@@H](C)O)C(=O)N[C@@H](CC(C)C)C(=O)N[C@@H](CO)C(=O)N[C@@H](CCCNC(=N)N)C(=O)N[C@@H](CO)C(=O)NCC(=O)NCC(=O)N[C@H](C(=O)N[C@H](C(=O)N[C@@H](CCCCN)C(=O)N[C@@H](CC(N)=O)C(=O)N[C@@H](CC(N)=O)C(=O)N[C@@H](Cc1ccccc1)C(=O)N[C@H](C(=O)N1CCC[C@H]1C(=O)N[C@H](C(=O)N[C@@H](CC(=O)O)C(=O)N[C@H](C(=O)NCC(=O)N1CCC[C@H]1C(=O)N[C@@H](Cc1ccccc1)C(=O)N[C@@H](C)C(=O)N[C@@H](Cc1ccccc1)C(N)=O)C(C)C)[C@@H](C)O)C(C)C)C(C)C)C(C)C
B5: SEQ ID NO 703 (peptide)
peptide: [Phg]VTHRLAGLLSRSGGVVKNNFVPTDVGPFAF-NH2
modifications: N-terminus assumed
SMILES: CC(C)C[C@H](NC(=O)CNC(=O)[C@H](C)NC(=O)[C@H](CC(C)C)NC(=O)[C@H](CCCNC(=N)N)NC(=O)[C@H](Cc1c[nH]cn1)NC(=O)[C@@H](NC(=O)[C@@H](NC(=O)[C@@H](N)c1ccccc1)C(C)C)[C@@H](C)O)C(=O)N[C@@H](CC(C)C)C(=O)N[C@@H](CO)C(=O)N[C@@H](CCCNC(=N)N)C(=O)N[C@@H](CO)C(=O)NCC(=O)NCC(=O)N[C@H](C(=O)N[C@H](C(=O)N[C@@H](CCCCN)C(=O)N[C@@H](CC(N)=O)C(=O)N[C@@H](CC(N)=O)C(=O)N[C@@H](Cc1ccccc1)C(=O)N[C@H](C(=O)N1CCC[C@H]1C(=O)N[C@H](C(=O)N[C@@H](CC(=O)O)C(=O)N[C@H](C(=O)NCC(=O)N1CCC[C@H]1C(=O)N[C@@H](Cc1ccccc1)C(=O)N[C@@H](C)C(=O)N[C@@H](Cc1ccccc1)C(N)=O)C(C)C)[C@@H](C)O)C(C)C)C(C)C)C(C)C
B6: SEQ ID NO 707 (peptide)
peptide: ASDTATCVTHRLAGLLSRSGGVVKNNFVPTNVGSKAF
modifications: ASDTATC(Acm)VTHRLAGLLSRSGGVVKNNFVPTNVGSKAF-NH2
B7: SEQ ID NO 708 (peptide)
peptide: AC(Acm)DTATSVTHRLAGLLSRSGGVVKNNFVPTNVGSKAF-NH2
modifications: N-terminus assumed
SMILES: CC(=O)NCSC[C@H](NC(=O)[C@H](C)N)C(=O)N[C@@H](CC(=O)O)C(=O)N[C@H](C(=O)N[C@@H](C)C(=O)N[C@H](C(=O)N[C@@H](CO)C(=O)N[C@H](C(=O)N[C@H](C(=O)N[C@@H](Cc1c[nH]cn1)C(=O)N[C@@H](CCCNC(=N)N)C(=O)N[C@@H](CC(C)C)C(=O)N[C@@H](C)C(=O)NCC(=O)N[C@@H](CC(C)C)C(=O)N[C@@H](CC(C)C)C(=O)N[C@@H](CO)C(=O)N[C@@H](CCCNC(=N)N)C(=O)N[C@@H](CO)C(=O)NCC(=O)NCC(=O)N[C@H](C(=O)N[C@H](C(=O)N[C@@H](CCCCN)C(=O)N[C@@H](CC(N)=O)C(=O)N[C@@H](CC(N)=O)C(=O)N[C@@H](Cc1ccccc1)C(=O)N[C@H](C(=O)N1CCC[C@H]1C(=O)N[C@H](C(=O)N[C@@H](CC(N)=O)C(=O)N[C@H](C(=O)NCC(=O)N[C@@H](CO)C(=O)N[C@@H](CCCCN)C(=O)N[C@@H](C)C(=O)N[C@@H](Cc1ccccc1)C(N)=O)C(C)C)[C@@H](C)O)C(C)C)C(C)C)C(C)C)[C@@H](C)O)C(C)C)[C@@H](C)O)[C@@H](C)O
B8: SEQ ID NO 709 (peptide)
peptide: ASDTATSVTHRLAGLLSRSGGVVKNNFVPTNVGSKAF-NH2
B9: SEQ ID NO 153 (peptide)
peptide: WVTHXLAGLLSXSGGVVXKNFVPTDVGPFAF
modifications: Ac-WVTH[Cit]LAGLLS[Cit]SGGVV[hArg]K(20 K PEGald)NFVPTDVGPFAF-NH2
B10: SEQ ID NO 158 (peptide)
peptide: B9 peptide with X18R
modifications: Ac-WVTH[Cit]LAGLLS[Cit]SGGVVRK(20 KPEGald)NFVPTDVGPFAF-NH2
B11: SEQ ID NO 171 (peptide)
peptide: B9 peptide
modifications: Ac-WVTH[Cit]LAGLLS[Cit]SGGVV[hArg]K(20 KPEGald)NFVPTDVGPFAF-NH2
B12: SEQ ID NO 704 (peptide)
peptide: [Cha]VTHRLAGLLSRSGGVVKNNFVPTDVGPFAF-NH2
B13: SEQ ID NO 141 (peptide)
peptide: Ac-WVTH[Cit]LAGLLS[Cit]SGGVVRKNFVPTDVG[Tic]FAF-NH2
B14: SEQ ID NO 654 (peptide)
peptide: Ac-WVTH[Cit]LAGLLS[Cit]SGGVV[hArg]KNFVPTDVGPFA-NH2
modifications: not fully specified
B15: SEQ ID NO 128 (peptide)
peptide: Ac-KWVTH[Cit]LAGLLS[Cit]SGGVVRKNFVPTDVGPKAF-NH2
SMILES: CC(=O)N[C@@H](CCCCN)C(=O)N[C@@H](Cc1c[nH]c2ccccc12)C(=O)N[C@H](C(=O)N[C@H](C(=O)N[C@@H](Cc1c[nH]cn1)C(=O)N[C@@H](CCCNC(N)=O)C(=O)N[C@@H](CC(C)C)C(=O)N[C@@H](C)C(=O)NCC(=O)N[C@@H](CC(C)C)C(=O)N[C@@H](CC(C)C)C(=O)N[C@@H](CO)C(=O)N[C@@H](CCCNC(N)=O)C(=O)N[C@@H](CO)C(=O)NCC(=O)NCC(=O)N[C@H](C(=O)N[C@H](C(=O)N[C@@H](CCCNC(=N)N)C(=O)N[C@@H](CCCCN)C(=O)N[C@@H](CC(N)=O)C(=O)N[C@@H](Cc1ccccc1)C(=O)N[C@H](C(=O)N1CCC[C@H]1C(=O)N[C@H](C(=O)N[C@@H](CC(=O)O)C(=O)N[C@H](C(=O)NCC(=O)N1CCC[C@H]1C(=O)N[C@@H](CCCCN)C(=O)N[C@@H](C)C(=O)N[C@@H](Cc1ccccc1)C(N)=O)C(C)C)[C@@H](C)O)C(C)C)C(C)C)C(C)C)[C@@H](C)O)C(C)C
B16: SEQ ID NO 655 (peptide)
peptide: Ac-WVTH[Cit]LAGLLS[Cit]SGGVV[hArg]KNFVPTDVGPF-NH2
SMILES: CC(=O)N[C@@H](Cc1c[nH]c2ccccc12)C(=O)N[C@H](C(=O)N[C@H](C(=O)N[C@@H](Cc1c[nH]cn1)C(=O)N[C@@H](CCCNC(N)=O)C(=O)N[C@@H](CC(C)C)C(=O)N[C@@H](C)C(=O)NCC(=O)N[C@@H](CC(C)C)C(=O)N[C@@H](CC(C)C)C(=O)N[C@@H](CO)C(=O)N[C@@H](CCCNC(N)=O)C(=O)N[C@@H](CO)C(=O)NCC(=O)NCC(=O)N[C@H](C(=O)N[C@H](C(=O)N[C@@H](CCCCNC(=N)N)C(=O)N[C@@H](CCCCN)C(=O)N[C@@H](CC(N)=O)C(=O)N[C@@H](Cc1ccccc1)C(=O)N[C@H](C(=O)N1CCC[C@H]1C(=O)N[C@H](C(=O)N[C@@H](CC(=O)O)C(=O)N[C@H](C(=O)NCC(=O)N1CCC[C@H]1C(=O)N[C@@H](Cc1ccccc1)C(N)=O)C(C)C)[C@@H](C)O)C(C)C)C(C)C)C(C)C)[C@@H](C)O)C(C)C
B17: SEQ ID NO 140 (peptide)
peptide: Ac-WVTH[Cit]LAGLLS[Cit]SGGVVRKNFVPTDVG[Tic]FAF-NH2
B18: SEQ ID NO 137 (peptide)
peptide: B9 peptide with F21X, P28X
modifications: Ac-WVTH[Cit]LAGLLS[Cit]SGGVV[hArg]KN[2-Nal]VPTDVG[Oic]FAF-NH2
B19: SEQ ID NO 144 (peptide)
peptide: B9 peptide with F29X
modifications: Ac-WVTH[Cit]LAGLLS[Cit]SGGVV[hArg]KNFVPTDVGP[1-Nal]AF-NH2
B20: SEQ ID NO 139 (peptide)
peptide: WVTHXLAGLLSXSGGVVXKNXVXTDVGXFAX
modifications: Ac-WVTH[Cit]LAGLLS[Cit]SGGVV[hArg]KN[2-Nal]V[Oic]TDVG[Oic]FA[2-Nal]-NH2
B21: SEQ ID NO 138 (peptide)
peptide: B20 peptide with X23P
modifications: Ac-WVTH[Cit]LAGLLS[Cit]SGGVV[hArg]KN[2-Nal]VPTDVG[Oic]FA[2-Nal]-NH2
B22: SEQ ID NO 653 (peptide)
peptide: B9 peptide
modifications: Ac-WVTH[Cit]LAGLLS[Cit]SGGVV[hArg]KNFVPTDVGPFAF-NH2
B23: SEQ ID NO 146 (peptide)
peptide: B9 peptide with X18R, F29X
modifications: Ac-WVTH[Cit]LAGLLS[Cit]SGGVVRKNFVPTDVGP[Tic]AF-NH2

Molecular target: T1, CGRP1 receptor (CRLR/RAMP1 complex) of human neuroblastoma SK-N-MC cells (human, UniProt Q16602 23-461; O60894 27-148)
T1 construct: whole, on cells
T1 sequence (Q16602 23-461, chain 1 of 2): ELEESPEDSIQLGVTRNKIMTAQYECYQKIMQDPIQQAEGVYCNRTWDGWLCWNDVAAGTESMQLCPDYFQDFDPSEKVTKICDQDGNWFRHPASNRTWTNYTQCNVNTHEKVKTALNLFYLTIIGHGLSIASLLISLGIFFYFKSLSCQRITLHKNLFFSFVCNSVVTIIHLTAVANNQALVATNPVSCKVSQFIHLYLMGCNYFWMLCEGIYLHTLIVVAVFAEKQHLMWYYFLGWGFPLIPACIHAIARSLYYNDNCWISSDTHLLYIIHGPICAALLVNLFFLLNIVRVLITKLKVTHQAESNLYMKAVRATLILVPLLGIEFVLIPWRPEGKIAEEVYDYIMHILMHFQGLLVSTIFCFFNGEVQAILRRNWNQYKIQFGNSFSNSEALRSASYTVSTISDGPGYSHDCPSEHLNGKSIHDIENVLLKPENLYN
T1 sequence (O60894 27-148, chain 2 of 2): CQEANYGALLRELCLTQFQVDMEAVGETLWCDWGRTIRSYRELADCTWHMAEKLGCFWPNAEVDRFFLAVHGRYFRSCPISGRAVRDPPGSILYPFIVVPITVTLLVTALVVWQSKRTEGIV
Test: 125I-hαCGRP competition, SK-N-MC membranes
Procedure: CGRP₁ binding experiments. […] The plates were incubated at room temperature for 2 hour with shaking at 60 rpm, then the contents of each well were filtered over 0.5% polyethyleneimine (PEI)-treated (at least one hour) GF/C 96-well filter plates. The GF/C filter plates were washed 6 times with ice-cold 50 mM Tris, pH 7.5 and dried in an oven at 55 C for 1 hour. The bottoms of the GF/C plates were then sealed, and 40 μl Microscint™ 20 was added to each well, then the tops of the GF/C plates were sealed with TopSeal™-A, a press-on adhesive sealing film, and the GF/C plates were counted with TopCount NXT (Packard). The data were analyzed by using ActivityBase (IDBS) or Prizm (GraphPad) software.

Row | Binder | Ki [nM]
1 | B1 | 0.14
2 | B2 | 7.34
3 | B3 | 0.23
4 | B4 | 0.22
5 | B5 | 0.19
6 | B6 | 20.8
7 | B7 | 24
8 | B8 | 12.1
9 | B9 | 1.78
10 | B10 | 2.61
11 | B11 | 1.27
12 | B12 | 0.2

Molecular target: T1, CGRP1 receptor (CRLR/RAMP1 complex) of …
Test: cell-based or functional assay

Row | Binder | IC50 [nM]
13 | B13 | 4.32
14 | B14 | > 1000
15 | B15 | 13
16 | B16 | > 1000
17 | B17 | 3.02
18 | B18 | 2.66
19 | B19 | 2.24
20 | B20 | 3.57
21 | B21 | 3.45
22 | B22 | 3.22
23 | B23 | 10.1
